According to paper PMC10164081 (Structure (London, England : 1993), 2023):
Where no end group is shown, it is not given here.

How the values were obtained:
purified Ric-8A = biological target: T1, purified Ric-8A (rat, UniProt Q80ZG1 1-530); assay: differential scanning fluorimetry
T1 sequence (looked up): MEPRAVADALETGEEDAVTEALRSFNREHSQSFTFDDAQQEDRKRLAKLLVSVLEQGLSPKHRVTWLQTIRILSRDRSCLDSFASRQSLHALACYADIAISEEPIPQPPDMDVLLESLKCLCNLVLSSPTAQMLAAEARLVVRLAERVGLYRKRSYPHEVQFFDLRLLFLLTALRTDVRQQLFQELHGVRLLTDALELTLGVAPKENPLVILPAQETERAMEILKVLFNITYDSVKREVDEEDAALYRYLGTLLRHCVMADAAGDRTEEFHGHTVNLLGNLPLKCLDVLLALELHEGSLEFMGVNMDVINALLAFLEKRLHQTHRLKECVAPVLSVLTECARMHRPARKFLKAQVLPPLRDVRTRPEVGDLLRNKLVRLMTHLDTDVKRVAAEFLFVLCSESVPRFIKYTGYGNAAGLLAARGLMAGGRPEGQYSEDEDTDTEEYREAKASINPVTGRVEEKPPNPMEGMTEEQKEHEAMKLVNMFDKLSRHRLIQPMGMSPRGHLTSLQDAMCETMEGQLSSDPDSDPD

[1] = biological target: Gαolf/13 SwII chimeric sensor (human); assay: cell-based or functional assay
[2] = biological target: Gαolf/i1 SwII chimeric sensor (human); assay: cell-based or functional assay

Binder | maximal thermal shift (ΔTm) (purified Ric-8A) | folding of the Switch II chimeric Gαolf-RLuc sensor (luminescence) by Ric-8B [1] | folding of the Switch II chimeric Gαolf-RLuc sensor (luminescence) by Ric-8B [2]
RDVKDTILHDNLKQLMLQ-NH2 [Gα13 C-term amidated peptide] | 3.6 °C |  | 
phosphorylated Ric-8B (natural protein, mouse, UniProt Q80XE1-1 1-560, looked up, phosphoserine at 468, phosphothreonine at 473, and additional positions (Table S1)) MDEERALYIVRAGEAGAIERVLRDYSDKHRATFKFESADEDKRKKLCEGIFKVLVKEVPTTCQVSCLEVLRILSRDKKILVPVTTKENMQILLRLAKLHESDDSLEKVSEFPVIVESLKCLCNIVFNSQMAQQLSLELNLAAKLCNLLRKCKDRKFINDIKCFDLRLLFVLSLLHTDIRSQLRYELQGLPLLTQILESAFSIKWTDEYESAIDHNGPPLSPQETDCAIEALKALFNVTVDSWKVHKESDSHQFRVMAAVLRHCLLIVGPTEDKTEELHSNAVNLLSNVPVSCLDVLICPLTHEETAQEAATLDELPSDKTTEKDTALKNSTMVYNGMNMEAIHVLLNFMEKRIDKGSSYREGLTPVLSLLTECSRAHRNIRKFLKDQVLPPLRDVTNRPEVGSTVRNKLVRLMTHVDLGVKQIAAEFLFVLCKERVDSLLKYTGYGNAAGLLAARGLLAGGRGDNWYSEDEDTDTEEYKNAKPNINLITGHLEEPMPNPIDEMTEEQKEYEAMKLVNMLDKLSREELLKPMGLKPDGTITPLEEALSQYSVIEETSSDTD |  | 50 % decrease | 88 % of Gαolf
